Measured values reported in publication PMC9394524.

Molecular target: Kel1 (UniProt P38853)
Assay: GFP-trap IP of Kel1-GFP, anti-FLAG blot
Conditions: reference: wild-type Sst2-3xFLAG; sites S539

binding against the reference: stronger
Substance: RGS Sst2 (from UniProt P11972) S539A
